We go through two molecules from patent US20040115660A1 (published 2004).

The target in assay [1] is T1, mouse TIE2 (mouse, UniProt Q02858 23-1122).
T1 construct: whole, on cells
The assay can be described thus: co-immunoprecipitation from cotransfected 293T cells.

Assay [2] concerns the target T2, human EGFR (human, UniProt P00533 25-1210).
T2 construct: whole, on cells
Described as above.

Assay [3] deals with T3, mouse VEGFR2 (mouse, UniProt P35918 20-1345).
T3 construct: whole, on cells
Described as above.

Assay [4] addresses T4, human EphB3 (human, UniProt P54753 34-998).
T4 construct: whole, on cells; also called Eph receptor B3
T4 sequence (looked up): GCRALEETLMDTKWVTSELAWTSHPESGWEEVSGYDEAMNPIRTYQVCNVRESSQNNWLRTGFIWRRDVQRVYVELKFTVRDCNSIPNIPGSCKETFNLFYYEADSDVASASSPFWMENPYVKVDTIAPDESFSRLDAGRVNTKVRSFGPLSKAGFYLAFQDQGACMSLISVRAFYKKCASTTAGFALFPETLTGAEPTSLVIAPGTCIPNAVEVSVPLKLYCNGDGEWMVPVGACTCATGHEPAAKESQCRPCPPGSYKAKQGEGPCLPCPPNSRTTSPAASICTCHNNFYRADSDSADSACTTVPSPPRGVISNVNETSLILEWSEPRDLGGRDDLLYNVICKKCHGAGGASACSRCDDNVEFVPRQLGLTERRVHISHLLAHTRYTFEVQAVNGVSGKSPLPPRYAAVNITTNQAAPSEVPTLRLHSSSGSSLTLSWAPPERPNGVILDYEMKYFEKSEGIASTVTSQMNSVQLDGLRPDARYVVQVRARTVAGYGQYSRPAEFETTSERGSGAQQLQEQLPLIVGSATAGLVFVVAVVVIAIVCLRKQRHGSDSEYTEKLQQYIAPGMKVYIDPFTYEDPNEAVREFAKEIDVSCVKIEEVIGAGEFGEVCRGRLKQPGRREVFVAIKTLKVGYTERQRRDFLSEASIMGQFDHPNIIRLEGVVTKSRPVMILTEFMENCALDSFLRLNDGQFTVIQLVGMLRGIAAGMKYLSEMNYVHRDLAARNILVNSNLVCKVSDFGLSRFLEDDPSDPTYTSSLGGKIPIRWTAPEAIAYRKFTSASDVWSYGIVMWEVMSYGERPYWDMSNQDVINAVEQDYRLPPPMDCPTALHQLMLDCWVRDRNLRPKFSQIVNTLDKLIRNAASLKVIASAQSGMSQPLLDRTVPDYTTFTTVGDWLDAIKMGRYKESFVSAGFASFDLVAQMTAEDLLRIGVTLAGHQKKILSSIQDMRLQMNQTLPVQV
The assay can be described thus: anti-Myc immunoprecipitation from 293T cells co-expressing RYK, AF-6 and EphB3 (FIG. 4b). On the procedure:
Lysis and subsequent analysis of complexes in triple-transfected cells was performed as previously described (13). The inventors prepared embryonic and tissue lysates by Dounce homogenization. The inventors cleared lysates of insoluble debris by centrifugation, and performed immunoprecipitation from cleared lysates containing equal amounts of total protein as assessed by the BCA assay (Pierce). Immune complexes were captured by incubation with protein A-, G- or L-conjugated beads. The mouse anti-RYK monoclonal antibody (IgMₓ isotype⁵) was covalently coupled to CNBr-activated Sepharose 4B (Pharmacia) at 1 mg/ml packed beads for immunoprecipitation or cross-linked it in solution using a goat anti-mouse IgM (Jackson Immunoresearch). The inventors used anti-FLAG monoclonal antibody M2 (Sigma) for immunoprecipitation as an affinity gel and for Western blotting in a biotinylated form. Anti-AF-6 monoclonal antibody (clone 35) was obtained from Transduction Laboratories and anti-Myc monoclonal antibody (clone 9E10) from Zymed Laboratories. Immune complexes were collected by centrifugation and washed three times in HNTG, eluted in 20-50 μL of 2×SDS-PAGE sample buffer containing 10% v/v 2-mercaptoethanol, fractionated by SDS-PAGE and electroblotted to Immobilon P (Millipore) for Western analysis. […]

In assay [5] the target is T5, endogenous mouse AF-6 (mouse, UniProt Q9QZQ1 1-1820, limits assumed).
T5 construct: also called Afadin
The assay can be described thus: co-immunoprecipitation from mouse tissue lysates, both directions (FIG. 4c).

T3 sequence (P35918 20-1345): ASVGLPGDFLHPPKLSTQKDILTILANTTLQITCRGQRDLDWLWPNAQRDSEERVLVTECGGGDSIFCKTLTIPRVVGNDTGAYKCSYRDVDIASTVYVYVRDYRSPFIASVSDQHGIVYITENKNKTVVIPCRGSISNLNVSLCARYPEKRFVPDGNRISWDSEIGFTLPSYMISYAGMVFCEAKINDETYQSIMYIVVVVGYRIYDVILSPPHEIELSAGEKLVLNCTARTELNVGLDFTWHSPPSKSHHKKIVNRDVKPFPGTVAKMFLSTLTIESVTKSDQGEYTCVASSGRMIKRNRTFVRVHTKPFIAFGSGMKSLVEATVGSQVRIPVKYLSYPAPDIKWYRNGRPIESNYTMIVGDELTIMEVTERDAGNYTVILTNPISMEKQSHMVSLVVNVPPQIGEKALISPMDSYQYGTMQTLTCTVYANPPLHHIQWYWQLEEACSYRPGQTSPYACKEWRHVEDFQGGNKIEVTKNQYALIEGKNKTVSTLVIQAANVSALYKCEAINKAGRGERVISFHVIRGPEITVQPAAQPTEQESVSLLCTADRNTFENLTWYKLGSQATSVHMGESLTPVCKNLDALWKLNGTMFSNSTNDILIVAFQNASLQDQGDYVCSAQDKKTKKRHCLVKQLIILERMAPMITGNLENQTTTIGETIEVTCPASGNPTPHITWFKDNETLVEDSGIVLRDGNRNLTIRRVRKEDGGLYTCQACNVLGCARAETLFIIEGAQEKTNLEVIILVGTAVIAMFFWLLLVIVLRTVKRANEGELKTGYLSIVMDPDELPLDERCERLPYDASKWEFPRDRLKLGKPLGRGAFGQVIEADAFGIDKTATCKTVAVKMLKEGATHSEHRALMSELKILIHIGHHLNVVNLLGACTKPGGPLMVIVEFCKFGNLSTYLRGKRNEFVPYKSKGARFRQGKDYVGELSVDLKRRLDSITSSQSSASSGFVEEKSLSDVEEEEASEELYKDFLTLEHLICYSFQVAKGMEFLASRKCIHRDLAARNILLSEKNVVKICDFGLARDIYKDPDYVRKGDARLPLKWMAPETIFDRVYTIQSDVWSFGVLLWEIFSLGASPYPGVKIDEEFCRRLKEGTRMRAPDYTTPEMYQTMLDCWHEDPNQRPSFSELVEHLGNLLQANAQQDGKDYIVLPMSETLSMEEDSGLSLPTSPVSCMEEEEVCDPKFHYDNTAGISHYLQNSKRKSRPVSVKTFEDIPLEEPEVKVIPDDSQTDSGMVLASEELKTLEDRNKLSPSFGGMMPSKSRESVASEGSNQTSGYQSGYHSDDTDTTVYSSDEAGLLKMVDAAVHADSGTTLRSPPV
T5 sequence (Q9QZQ1 whole entry): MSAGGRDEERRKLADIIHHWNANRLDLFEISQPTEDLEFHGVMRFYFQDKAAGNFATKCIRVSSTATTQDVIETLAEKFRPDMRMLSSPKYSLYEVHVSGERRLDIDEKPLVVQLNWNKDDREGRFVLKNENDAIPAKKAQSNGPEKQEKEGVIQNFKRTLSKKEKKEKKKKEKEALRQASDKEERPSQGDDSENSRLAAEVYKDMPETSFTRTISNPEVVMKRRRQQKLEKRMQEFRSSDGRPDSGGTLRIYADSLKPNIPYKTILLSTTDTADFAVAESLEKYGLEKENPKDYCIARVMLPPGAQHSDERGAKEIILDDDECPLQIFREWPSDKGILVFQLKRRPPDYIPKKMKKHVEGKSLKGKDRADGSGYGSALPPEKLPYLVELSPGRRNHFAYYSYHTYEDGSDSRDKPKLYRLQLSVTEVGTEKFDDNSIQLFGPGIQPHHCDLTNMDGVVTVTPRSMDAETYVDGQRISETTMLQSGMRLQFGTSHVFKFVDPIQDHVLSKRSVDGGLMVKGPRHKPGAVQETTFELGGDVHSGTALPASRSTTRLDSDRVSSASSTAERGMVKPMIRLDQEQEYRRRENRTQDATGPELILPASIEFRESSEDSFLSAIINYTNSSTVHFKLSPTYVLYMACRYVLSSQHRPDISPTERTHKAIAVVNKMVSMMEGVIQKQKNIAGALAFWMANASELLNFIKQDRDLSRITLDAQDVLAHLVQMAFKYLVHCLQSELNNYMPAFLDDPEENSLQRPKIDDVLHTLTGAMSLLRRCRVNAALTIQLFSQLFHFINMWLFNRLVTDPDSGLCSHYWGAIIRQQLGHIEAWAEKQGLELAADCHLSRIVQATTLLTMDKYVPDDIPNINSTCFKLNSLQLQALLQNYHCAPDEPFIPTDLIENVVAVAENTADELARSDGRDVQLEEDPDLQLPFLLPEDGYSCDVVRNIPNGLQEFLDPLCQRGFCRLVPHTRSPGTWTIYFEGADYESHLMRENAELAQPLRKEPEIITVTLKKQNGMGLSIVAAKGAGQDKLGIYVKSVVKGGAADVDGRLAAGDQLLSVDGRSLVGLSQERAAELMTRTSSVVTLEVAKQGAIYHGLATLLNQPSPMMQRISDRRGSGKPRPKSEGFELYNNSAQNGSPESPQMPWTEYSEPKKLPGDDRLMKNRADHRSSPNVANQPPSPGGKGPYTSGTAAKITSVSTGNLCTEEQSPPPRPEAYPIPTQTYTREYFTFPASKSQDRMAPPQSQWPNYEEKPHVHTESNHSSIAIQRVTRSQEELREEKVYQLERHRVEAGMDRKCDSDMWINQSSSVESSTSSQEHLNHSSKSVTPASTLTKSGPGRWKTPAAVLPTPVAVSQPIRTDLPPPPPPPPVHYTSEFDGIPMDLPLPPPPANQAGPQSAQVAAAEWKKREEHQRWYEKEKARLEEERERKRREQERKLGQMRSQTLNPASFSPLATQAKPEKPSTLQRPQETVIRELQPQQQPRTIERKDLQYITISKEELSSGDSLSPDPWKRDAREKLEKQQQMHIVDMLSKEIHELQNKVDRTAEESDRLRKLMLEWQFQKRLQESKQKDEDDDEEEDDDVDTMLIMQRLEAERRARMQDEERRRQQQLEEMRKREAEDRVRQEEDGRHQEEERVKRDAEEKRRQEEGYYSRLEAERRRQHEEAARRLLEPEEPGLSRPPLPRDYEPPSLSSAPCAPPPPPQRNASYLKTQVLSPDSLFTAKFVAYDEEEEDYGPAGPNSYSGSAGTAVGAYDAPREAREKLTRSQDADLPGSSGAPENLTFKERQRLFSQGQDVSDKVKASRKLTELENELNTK
T1 sequence (Q02858 23-1122): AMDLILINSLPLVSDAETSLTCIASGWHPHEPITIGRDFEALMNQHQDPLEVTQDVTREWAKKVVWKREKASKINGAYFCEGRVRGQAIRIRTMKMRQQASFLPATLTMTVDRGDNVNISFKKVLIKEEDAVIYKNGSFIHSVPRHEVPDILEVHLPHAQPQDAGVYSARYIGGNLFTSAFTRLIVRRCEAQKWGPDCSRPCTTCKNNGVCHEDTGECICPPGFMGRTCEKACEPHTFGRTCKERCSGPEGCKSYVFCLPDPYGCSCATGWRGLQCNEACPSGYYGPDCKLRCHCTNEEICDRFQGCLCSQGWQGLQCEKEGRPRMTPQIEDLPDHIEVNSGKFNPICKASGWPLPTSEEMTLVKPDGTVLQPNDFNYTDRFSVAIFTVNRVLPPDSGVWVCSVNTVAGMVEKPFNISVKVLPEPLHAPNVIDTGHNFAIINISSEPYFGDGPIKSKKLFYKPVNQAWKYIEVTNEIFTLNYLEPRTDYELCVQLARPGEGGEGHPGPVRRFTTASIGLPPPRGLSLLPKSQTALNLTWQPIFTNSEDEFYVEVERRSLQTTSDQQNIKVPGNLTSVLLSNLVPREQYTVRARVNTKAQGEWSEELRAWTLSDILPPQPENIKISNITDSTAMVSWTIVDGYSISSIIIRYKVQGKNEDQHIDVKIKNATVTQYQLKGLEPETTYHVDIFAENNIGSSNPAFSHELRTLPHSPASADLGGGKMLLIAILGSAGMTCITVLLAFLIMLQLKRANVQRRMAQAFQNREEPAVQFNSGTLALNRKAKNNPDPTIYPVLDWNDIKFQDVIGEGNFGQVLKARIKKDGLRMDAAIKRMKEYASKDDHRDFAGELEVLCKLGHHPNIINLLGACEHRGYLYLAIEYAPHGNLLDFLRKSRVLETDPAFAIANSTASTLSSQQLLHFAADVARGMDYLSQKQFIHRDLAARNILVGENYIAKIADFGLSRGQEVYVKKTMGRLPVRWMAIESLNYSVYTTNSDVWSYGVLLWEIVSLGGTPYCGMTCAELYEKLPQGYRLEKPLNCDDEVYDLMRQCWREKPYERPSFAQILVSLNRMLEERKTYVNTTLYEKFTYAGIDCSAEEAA

B1: Myc2.RYK (double Myc epitope-tagged mouse RYK) (receptor, UniProt Q01887 35-594, looked up, not shown: small tags and cut ends)
chain: RSPALAAAPAGPSVSLYLSEDEVRRLLGLDAELYYVRNDLISHYALSFNLLVPSETNFLHFTWHAKSKVEYKLGFQVDNFVAMGMPQVNISAQGEVPRTLSVFRVELSCTGKVDSEVMILMQLNLTVNSSKNFTVLNFKRRKMCYKKLEEVKTSALDKNTSRTIYDPVHAAPTTSTRVFYISVGVCCAVIFLVAIILAVLHLHSMKRIELDDSISASSSSQGLSQPSTQTTQYLRADTPNNATPITSSSGYPTLRIEKNDLRSVTLLEAKAKVKDIAISRERITLKDVLQEGTFGRIFHGILVDEKDPNKEKQTFVKTVKDQASEVQVTMMLTESCKLRGLHHRNLLPITHVCIEEGEKPMVVLPYMNWGNLKLFLRQCKLVEANNPQAISQQDLVHMAIQIACGMSYLARREVIHRDLAARNCVIDDTLQVKITDNALSRDLFPMDYHCLGDNENRPVRWMALESLVNNEFSSASDVWAFGVTLWELMTLGQTPYVDIDPFEMAAYLKDGYRIAQPINCPDELFAVMACCWALDPEERPKFQQLVQCLTEFHAALGAYV
notes: mature; also called wild-type RYK
Consider B1, for which the binding result in assay [1] is “no binding”; in assay [2] it was “no binding”; in assay [3], “no binding”; in assay [4], “binds”.

B2: endogenous mouse RYK (receptor, UniProt Q01887 35-594, looked up)
chain: RSPALAAAPAGPSVSLYLSEDEVRRLLGLDAELYYVRNDLISHYALSFNLLVPSETNFLHFTWHAKSKVEYKLGFQVDNFVAMGMPQVNISAQGEVPRTLSVFRVELSCTGKVDSEVMILMQLNLTVNSSKNFTVLNFKRRKMCYKKLEEVKTSALDKNTSRTIYDPVHAAPTTSTRVFYISVGVCCAVIFLVAIILAVLHLHSMKRIELDDSISASSSSQGLSQPSTQTTQYLRADTPNNATPITSSSGYPTLRIEKNDLRSVTLLEAKAKVKDIAISRERITLKDVLQEGTFGRIFHGILVDEKDPNKEKQTFVKTVKDQASEVQVTMMLTESCKLRGLHHRNLLPITHVCIEEGEKPMVVLPYMNWGNLKLFLRQCKLVEANNPQAISQQDLVHMAIQIACGMSYLARREVIHRDLAARNCVIDDTLQVKITDNALSRDLFPMDYHCLGDNENRPVRWMALESLVNNEFSSASDVWAFGVTLWELMTLGQTPYVDIDPFEMAAYLKDGYRIAQPINCPDELFAVMACCWALDPEERPKFQQLVQCLTEFHAALGAYV
notes: also called RYK beta subunit
Turning to B2, in assay [5], the binding result was “binds”.
